Assay [1] addresses Myc-tagged extracellular domain of NKp46 (human) (UniProt O76036). The assay is described as follows: MST.
Assay [2] addresses recombinant NKp46 (Raman spectroscopy) (UniProt O76036). The assay is described as follows: Raman spectroscopy.

Two substances from doi:10.1101/2021.10.31.466654 can be followed below.

Chain of UniProt O76036 (O76036 22-258): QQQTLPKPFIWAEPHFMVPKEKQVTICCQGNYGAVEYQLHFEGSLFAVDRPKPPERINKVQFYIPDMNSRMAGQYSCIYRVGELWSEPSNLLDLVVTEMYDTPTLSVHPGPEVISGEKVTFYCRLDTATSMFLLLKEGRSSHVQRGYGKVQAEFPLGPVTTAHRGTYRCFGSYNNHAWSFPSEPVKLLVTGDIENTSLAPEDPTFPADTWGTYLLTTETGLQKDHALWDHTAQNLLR

As usually defined, the Kd is the constant that tells how readily two partners part at equilibrium. In turn, “CRT P domain fused at the C-terminus to the Fc domain of human Ig (Fc fusion)” registered a Kd in assay [1] of 41.2 µM.
Consider “recombinant CRT (Raman spectroscopy) (from UniProt P27797 18-417) (natural protein)”, for which, in assay [2], the Kd stood at 9.95 µM.
